Measured values published in publication PMC5737849, “Structural study of the Fox-1 RRM protein hydration reveals a role for key water molecules in RRM-RNA recognition”.
Positions count from the first letter of the chain named.

Assays:
Fox-1 RRM S155A = target: T1, Fox-1 RRM S155A (UniProt Q9NWB1 109-208, S155A); experiment: NMR (1H-1H TOCSY); 1:1 ratio, 20 mM NaCl, pH 6.5, 40 C; switchSENSE: 10 mM Tris-HCl pH 7.4, 140 mM NaCl, 0.05% Tween20, 25 C; NMR: 10 mM phosphate pH 6.5, 20 mM NaCl, 40 C; settings: protein: recombinant; tags: N-terminal 6xHis (pET28a); single strand
T1 sequence: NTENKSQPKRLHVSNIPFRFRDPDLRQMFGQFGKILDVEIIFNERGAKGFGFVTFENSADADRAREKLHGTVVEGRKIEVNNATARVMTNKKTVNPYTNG

Fox-1 RRM WT = target: T2, Fox-1 RRM WT (UniProt Q9NWB1 109-208); experiment: as above; settings: protein: recombinant; tags: N-terminal 6xHis (pET28a); single strand
T2 sequence: T1 sequence with A47S

UGCAUGU (ssRNA) [5'-UGCAUGU-3' RNA oligonucleotide (NMR)]: binds (Fox-1 RRM S155A); binds (Fox-1 RRM WT).
